Experiments:
HLA-B*40:01 [1] = test: IEDB peptide-MHC binding, purified MHC/competitive/radioactivity; filed as Kd, often an IC50 or EC50 that approximates it; ≥ and ≤ were set here for values at or beyond the usual limits of such assays
HLA-A*02:01 [2] = test: IEDB peptide-MHC binding, purified MHC/competitive/fluorescence; ≥ and ≤ were set here for values at or beyond the usual limits of such assays
HLA-A*24:02 = test: as above
HLA-B*15:01 [3] = test: IEDB peptide-MHC binding, purified MHC/competitive/fluorescence; filed as Kd, often an IC50 or EC50 that approximates it; ≥ and ≤ were set here for values at or beyond the usual limits of such assays; conditions: source organism: Yersinia pestis Nepal516
HLA-A*30:01 = test: IEDB peptide-MHC binding, purified MHC/competitive/radioactivity; filed as Kd, often an IC50 or EC50 that approximates it; ≥ and ≤ were set here for values at or beyond the usual limits of such assays; conditions: source organism: Dengue virus 1 Brazil/97-11/1997
HLA-B*07:02 [4] = test: as above
HLA-A*02:01 [5] = test: as above
HLA-B*51:01 = test: as above; conditions: source organism: Dengue virus 2 16681-PDK53
HLA-B*39:01 = test: IEDB peptide-MHC binding, purified MHC/competitive/fluorescence; filed as Kd, often an IC50 or EC50 that approximates it; ≥ and ≤ were set here for values at or beyond the usual limits of such assays
HLA-B*44:03 = test: IEDB peptide-MHC binding, purified MHC/competitive/radioactivity; filed as Kd, often an IC50 or EC50 that approximates it; ≥ and ≤ were set here for values at or beyond the usual limits of such assays
HLA-B*44:02 [6] = test: as above
HLA-A*01:01 = test: IEDB peptide-MHC binding, purified MHC/direct/fluorescence; filed as Kd, often an IC50 or EC50 that approximates it; ≥ and ≤ were set here for values at or beyond the usual limits of such assays; conditions: source organism: Salmonella enterica
HLA-A*02:01 [7] = test: as above
HLA-A*03:01 = test: as above
HLA-A*11:01 = test: as above
HLA-A*24:03 = test: as above
HLA-A*26:01 = test: as above
HLA-A*31:01 = test: as above
HLA-A*69:01 = test: as above
HLA-B*07:02 [8] = test: as above
HLA-B*08:01 = test: as above
HLA-B*15:01 [9] = test: as above
HLA-B*27:05 = test: as above
HLA-B*40:01 [10] = test: as above
HLA-B*44:02 [11] = test: as above
HLA-B*58:01 = test: as above
[12] = source organism: Dengue virus 1 Brazil/97-11/1997
[13] = source organism: Zaire ebolavirus
[14] = source organism: Sudan ebolavirus
[15] = source organism: Dengue virus 4 Dominica/814669/1981
[16] = source organism: Vaccinia virus Copenhagen
[17] = source organism: Dengue virus 1 Singapore/S275/1990
[18] = source organism: Vaccinia virus WR
[19] = source organism: Salmonella enterica
[20] = source organism: Salmonella enterica subsp. enterica serovar Typhi
[21] = source organism: Dengue virus 4 Philippines/H241/1956
[22] = source organism: Giardia intestinalis

PEVANLDII
Kd (HLA-B*40:01 [1]; [12]): 8.59 µM

FFLWVIILF
IC50 (HLA-A*02:01 [2]; [13]): 7.45 µM
IC50 (HLA-A*24:02; [13]): 53 µM

TEYKRVMTF
Kd (HLA-B*15:01 [3]): 0.767 µM

RSRWSRKML
Kd (HLA-A*30:01): 0.0904 µM
Kd (HLA-B*07:02 [4]; [12]): 0.0931 µM

RLGLSRPLL
Kd (HLA-A*02:01 [5]; source organism: Hepatitis B virus subtype ayw): ≥ 5 µM

SPIIDKKGKV
Kd (HLA-B*07:02 [4]; source organism: Dengue virus 2 16681-PDK53): 0.582 µM
Kd (HLA-B*51:01): ≥ 69.6 µM

GIAWIPYFG
IC50 (HLA-A*02:01 [2]; [14]): 2.72 µM
IC50 (HLA-A*24:02; [14]): ≥ 76.2 µM

THEILWPSF
Kd (HLA-B*39:01; source organism: Shewanella putrefaciens CN-32): 2.48 µM

EEIDKKDGDL
Kd (HLA-B*40:01 [1]; [15]): 1.89 µM
Kd (HLA-B*44:03; [15]): 0.421 µM

LHSLSVETI
IC50 (HLA-A*02:01 [2]; [16]): ≥ 195 µM
IC50 (HLA-A*24:02; [16]): 13 µM

SGASTSQETW
Kd (HLA-B*44:02 [6]; [12]): 10.9 µM

FEATARGARR
Kd (HLA-B*40:01 [1]; [12]): 1.9 µM

AEHSGASHNI
Kd (HLA-B*44:02 [6]; [17]): 0.0786 µM
Kd (HLA-B*44:03; [17]): 0.502 µM

ELCCQHLWQI
Kd (HLA-A*02:01 [5]; source organism: Triticum aestivum): 5.55 µM

NGTLEFTPI
IC50 (HLA-A*02:01 [2]; [18]): 11.1 µM
IC50 (HLA-A*24:02; [18]): 23.1 µM

RPQLGVGDV
Kd (HLA-A*01:01): ≥ 20 µM
Kd (HLA-A*02:01 [7]; [19]): ≥ 20 µM
Kd (HLA-A*03:01; [19]): ≥ 20 µM
Kd (HLA-A*11:01; [19]): ≥ 20 µM
Kd (HLA-A*24:03; [20]): 6.18 µM
Kd (HLA-A*26:01; [19]): ≥ 20 µM
Kd (HLA-A*31:01; [19]): ≥ 20 µM
Kd (HLA-A*69:01; [19]): ≥ 20 µM
Kd (HLA-B*07:02 [8]; [20]): 0.38 µM
Kd (HLA-B*08:01; [19]): ≥ 20 µM
Kd (HLA-B*15:01 [9]; [19]): ≥ 20 µM
Kd (HLA-B*27:05; [19]): ≥ 20 µM
Kd (HLA-B*40:01 [10]; [19]): ≥ 20 µM
Kd (HLA-B*44:02 [11]; [19]): ≥ 20 µM
Kd (HLA-B*58:01; [19]): ≥ 20 µM

EYLFEVDNL
IC50 (HLA-A*02:01 [2]; [13]): 43.7 µM
IC50 (HLA-A*24:02; [13]): 0.402 µM

LEENMEVEIW
Kd (HLA-B*44:02 [6]; [21]): 0.225 µM
Kd (HLA-B*44:03; [21]): 0.257 µM

LLMWITQCFL
Kd (HLA-A*02:01 [5]; source organism: Homo sapiens): 0.043 µM

GYTPGQQFY
Kd (HLA-A*02:01 [7]; [22]): ≥ 20 µM
Kd (HLA-A*03:01; [22]): ≥ 20 µM
Kd (HLA-A*11:01; [22]): ≥ 20 µM
Kd (HLA-A*24:03; [22]): 5.42 µM
Kd (HLA-A*26:01; [22]): ≥ 20 µM
Kd (HLA-A*31:01; [22]): ≥ 20 µM
Kd (HLA-A*69:01; [22]): ≥ 20 µM
Kd (HLA-B*07:02 [8]; [22]): ≥ 20 µM
Kd (HLA-B*08:01; [22]): ≥ 20 µM
Kd (HLA-B*15:01 [9]; [22]): ≥ 20 µM
Kd (HLA-B*27:05; [22]): ≥ 20 µM
Kd (HLA-B*40:01 [10]; [22]): ≥ 20 µM
Kd (HLA-B*44:02 [11]; [22]): ≥ 20 µM
Kd (HLA-B*58:01; [22]): ≥ 20 µM

FFVWVIILF
IC50 (HLA-A*24:02; [14]): 1.51 µM

MEVTAKWLWG
Kd (HLA-B*44:03; [12]): 0.128 µM

ILMDSIFVST
Kd (HLA-B*07:02 [4]; [16]): ≥ 69.6 µM

YNAELLVAL
Kd (HLA-B*39:01; source organism: Influenza A virus (A/gray teal/Australia/2/1979(H4N4))): 0.0009 µM

— the Immune Epitope Database (IEDB)
